Experimental data taken from US20140255414A1 (PROBIODRUG, published 2014).
Square brackets hold non-standard residues; d marks the D form. pGlu = O=C1CC[C@@H](C(=O)O)N1; PEG = not defined here

What was measured:
[1] = target: CCL2 (known as MCP-1) pyroglutamate-peptide (UniProt P13500 24-99, limits assumed, N-terminal pyroglutamate); test: SPR, peptide immobilized on CM5 chip (data not shown)
[2] = target: neurotensin pyroglutamate-peptide (UniProt P30990 151-163, N-terminal pyroglutamate); test: as above
[3] = target: T1, gonadoliberin pyroglutamate-peptide (UniProt P01148 24-33, N-terminal pyroglutamate); test: as above
T1 peptide (looked up): QHWSYGLRPG

[4] = target: T2, orexin A pyroglutamate-peptide (UniProt O43612 34-66, N-terminal pyroglutamate); test: as above
T2 peptide (looked up): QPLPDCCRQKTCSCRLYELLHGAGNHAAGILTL

[5] = target: T3, big gastrin pyroglutamate-peptide (UniProt P01350 59-92, N-terminal pyroglutamate); test: as above
T3 peptide (looked up): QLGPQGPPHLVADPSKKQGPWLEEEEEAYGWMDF

[6] = target: T4, CCL8 (known as MCP-2) pyroglutamate-peptide (UniProt P80075 24-99, limits assumed, N-terminal pyroglutamate); test: as above
T4 sequence (peptide, looked up): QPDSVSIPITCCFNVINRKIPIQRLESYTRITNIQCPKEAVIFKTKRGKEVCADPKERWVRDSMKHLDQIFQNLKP

[7] = target: T5, Aβ(pE11-18)-PEG peptide (reading uncertain); test: ITC at 20 °C, peptide titrated into antibody eluted with 0.1 M glycine-HCl pH 2.7
T5 construct: The PEG attachment is not described further
T5 peptide: [pGlu]VHHQKLV-{PEG}
Protocol: For the ITC experiment, the peptide Aβ(pE11-18)-PEG was used because the hydrophilic PEG group imparts hydrophilic properties and so it was possible to dissolve the peptide directly in ITC buffer. Former experiments with Aβ(pE11-20) could only be performed with 1-2% DMSO, due to the strong hydrophobicity of the peptide it was necessary to dissolve it with DMSO which could have an effect on the ITC binding properties. At first the antibody was dialyzed against ITC buffer (150 mM NaCl, 25 mM Na₂HPO₄, 25 mM KH₂PO₄, 1 mM EDTA, pH=7.1) over night at 4° C. The lyophilised peptide, stored at −20° C., was dissolved in identical ITC buffer pH=7.1 which was used for antibody dialysis. Both antibody and antigen must be in identical solutions, otherwise large heats of dilution will mask the desired observation. Before the ITC experiment, the concentration of antibody was determined by UV/VIS spectroscopy (see section 1.3.1). At first the antibody with e.g. 5.13 μM (see Table 4) was added into the sample cell and the reference cell was filled with distilled water. Then the antigen was injected into the sample cell with e.g. 81.78 μM (see Table 4). The antigen should be generally in twofold excess to the antibody, bearing in mind that an antibody has two binding sites the antigen was in the cell at least in fourfold excess to the antibody. The 30 injections (1×2 μl and 29×10 μl) were made with a 4-min interval between subsequent injections. The measurement of heat of reaction was performed at 20° C. Furthermore the heat of reaction was determined which was only generated by dilution of the antigen through the titration into ITC buffer (pH=7.1). Therefore the antigen was injected into the sample cell filled with ITC buffer. […]
To characterize the binding of anti Aβ11(pE) antibody at the Aβ(pE11-18)-PEG peptide the method of Isothermal Titration calorimetry (ITC) was used (see section 1.3.4). The antibody which was eluted from protein G column with KSCN-gradient (pH 7.0) and 0.1 M glycine-HCl (pH 2.7) was analyzed.

[8] = target: T6, Aβ(pE11-30) peptide (N-terminal pyroglutamate (Aβ position 11)); test: SPR (Biacore 3000), purified antibody 0.04-10 µg/ml, 30 µl/min for 300 s, CM5 chip with immobilized Aβ(pE11-30); signal taken at the end of the dissociation phase, non-coated flow cell subtracted
T6 construct: Synthesized peptide; Amine-coupled to a CM5 chip for SPR, or adsorbed to the microplate for the direct ELISA
T6 peptide: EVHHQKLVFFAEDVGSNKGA
Protocol: Then the coupling of peptide followed. At first 10 μg/ml peptide Aβ(pE11-30) in 10 mM potassiumdihydrogenorthophosphate pH 6 was injected with a flow rate of 10 μl/min for 5 min. Because of the low signal rise the peptide was applied again with a higher concentration diluted in a solution with pH 5. 50 μg/ml peptide Aβ(pE11-30) in 10 mM sodium acetate pH 5 was injected with a flow rate of 10 μl/min for 20 min. A mild acid pH was chosen for coupling to provide a pre-concentration of the peptide (positive net charge) at the sensor surface (carboxyl group negative net charge) by electrostatic attraction. The covalent bond of the peptide was formed by the reaction of the two amino acids lysine (at peptide position 16 and 28) with the activated carboxyl group at chip surface. Excess reactive ester groups were deactivated with 1 M ethanolamine pH 8.5 with a flow rate of 10 μl/min for 10 min. Non-immobilized peptides were removed by injection of 0.1 M HCl (3×10 μl) and subsequently the chip was rinsed over night with running buffer. At the end the signal was about 1000 Response Units (RU) whereby the chip surface was saturated with the peptide.
For the measurement of anti Aβ11(pE) antibody concentration a CM5 chip, which was coated with Aβ(pE11-30) was used. The chip surface was saturated with the peptide and the signal was about 1000 Response Units (RU) (see section 1.3.3.1). […]

Sequence of CCL2 (known as MCP-1) pyroglutamate-peptide (P13500 24-99 limits assumed): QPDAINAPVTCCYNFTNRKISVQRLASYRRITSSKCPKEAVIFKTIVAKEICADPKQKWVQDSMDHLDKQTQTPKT

- binding result [1]: no binding (tested: 1 µg/ml antibody)
- binding result [2]: no binding (tested: 1 µg/ml antibody)
- binding result [3]: no binding (tested: 1 µg/ml antibody)
- binding result [4]: no binding (tested: 1 µg/ml antibody)
- binding result [5]: no binding (tested: 1 µg/ml antibody)
- binding result [6]: no binding (tested: 1 µg/ml antibody)
- -TΔS [7]: -1.36 kcal/mol
- Ka [7]: 9.5e+06 M⁻¹
- Stoichiometry (N) [7]: 1.01
- EC50 (read off the curve) [8]: ~1 µg/mL
B1: monoclonal mouse anti Aβ11(pE) antibody Aβ 13-11-6 (clone 13), Deposit No. DSM ACC 3100 (antibody, V domains shown)
VH: QVQLQQPGTELVKPGASVKLSCKASGFTFTSYWMHWVRQRPGQGLEWIGEINPSNGRTNYNEKFKSKATLTVDKSSSTAYMQLSSLTSEDSEVYYCARGDLAWDWSAYWGQGTLVTVSA
VL: DIVMSQSPSSLAVSAGEKVTMSCKSSQSLFYSRTRKNYLAWYQQKPGQSPKLLIYWASTRESGVPDRFTGSGSGTDFTLTISSVQAEDLAVYYCKQSYNLWSFGGGTKLEIKR
notes: The KSCN-eluted and glycine-HCl-eluted preparations are the same molecule; also called pEVHH-59025 13-11-6; mAb mouse anti Aβ11(pE)
